From patent US20080044423A1 (AstraZeneca / MedImmune, published 2008)
Like-named read-outs stand apart in the source and are kept apart here.

Tests used:
[1] = biological target: T1, Antibody 2 IgG1; test: HTRF epitope competition vs HIS FLAG IL-17A binding the IgG
T1 construct: human IgG1, lambda; constant regions not in the listing; also called Antibody 02

[2] = biological target: T2, Biosource mAb (reference anti-IL-17 mAb); test: as above
T2 construct: murine (detected with anti-murine Fc)

[3] = biological target: human IL-17A receptor on HT1080 cells (human); test: cell-based or functional assay
[4] = biological target: T3, human IL-17A, untagged, E. coli derived (in house or Peprotech) (human, UniProt Q16552 24-155); test: cell-based or functional assay
[5] = biological target: T4, human IL-17A derived from the HEK-EBNA expression system (human, UniProt Q16552 24-155); test: estimated from pA2 (Schild) analysis in the HT1080 IL-6 release assay
T4 construct: used in HT1080 assays; also called HEK EBNA expressed human IL-17A; IL-17A In-house (HEK EBNA)

[6] = biological target: T3, human IL-17A, untagged, E. coli derived …; test: cell-based or functional assay; remark: listed apart in the source
[7] = biological target: T3, human IL-17A, untagged, E. coli derived …; test: cell-based or functional assay; remark: listed apart in the source
[8] = biological target: T3, human IL-17A, untagged, E. coli derived …; test: cell-based or functional assay; remark: listed apart in the source
[9] = biological target: T5, cynomolgus IL-17A (cynomolgus, UniProt Q16552 24-155 (human entry), limits assumed); test: cell-based or functional assay
T5 chain: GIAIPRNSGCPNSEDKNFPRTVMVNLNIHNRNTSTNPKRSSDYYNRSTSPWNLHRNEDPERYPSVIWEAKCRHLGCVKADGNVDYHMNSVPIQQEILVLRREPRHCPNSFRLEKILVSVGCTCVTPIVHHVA

[10] = biological target: T4, human IL-17A derived from the HEK-EBNA …; test: cell-based or functional assay
[11] = biological target: T5, cynomolgus IL-17A; test: SPR BIAcore 2000; IgG1 amine-coupled on CM3, IL-17A 0.78-50 nM as analyte; Bivalent Analyte fit (kd1/ka1)
[12] = biological target: T3, human IL-17A, untagged, E. coli derived …; test: as above
[13] = biological target: T5, cynomolgus IL-17A; test: SPR BIAcore 2000; IgG1 amine-coupled on CM3, IL-17A 0.78-50 nM as analyte; 1:1 Langmuir fit
[14] = biological target: T6, Human IL-17A-Flag-His10 (HEK) (human, UniProt Q16552 24-155); test: as above
T6 construct: may be the same protein as the HIS FLAG IL-17A; not shown: Flag-His10 tag

[15] = biological target: T3, human IL-17A, untagged, E. coli derived …; test: as above
[16] = biological target: T7, HIS FLAG tagged human IL-17A (in house HEK EBNA derived) (human, UniProt Q16552 24-155); test: HTRF receptor-ligand assay: inhibition of HIS FLAG IL-17A binding IL-17RA Fc
T7 construct: glycosylated, from HEK EBNA cells; also called HIS FLAG IL-17A; HIS FLAG human IL-17A; not shown: HIS FLAG tag

[17] = biological target: T7, HIS FLAG tagged human IL-17A (in house …); test: as above; remark: listed apart in the source
[18] = biological target: T7, HIS FLAG tagged human IL-17A (in house …); test: HTRF receptor-ligand assay: inhibition of HIS FLAG IL-17A binding IL-17RA Fc; scFv, non-germlined sequence

T1 sequence (VH, as listed by the source): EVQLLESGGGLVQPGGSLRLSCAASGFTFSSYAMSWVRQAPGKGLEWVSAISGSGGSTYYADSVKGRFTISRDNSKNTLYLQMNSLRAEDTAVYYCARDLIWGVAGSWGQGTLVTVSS

B1: dog IL-17A (in house E. Coli derived) (ligand)
chain: GIAFPQNPGCRNTEDKNFPQHVKVNLNILNRNTNSRRPSDYYNRSTSPWNLHRNEDPERYPSVIWEAKCRHLGCVNNEGNINYHMNSVPIQQEILVLRRESQHCPHSFRLEKMLVAVGCTCVTPIVRHVA
IC50 [1]: 34 nM | IC50 [2]: 50 nM

B2: Mutant IL-17A (L74Q, G75R, I77V, D80E, N82K, V83L, Y85H) with C-terminal His tag (HEK/EBNA) (ligand)
chain: GITIPRNPGCPNSEDKNFPRTVMVNLNIHNRNTNTNPKRSSDYYNRSTSPWNLHRNEDPERYPSVIWEAKCRHQRCVNAEGKLDHHMNSVPIQQEILVLRREPPHCPNSFRLEKILVSVGCTCVTPIVHHVAHHHHH
IL-6 release from HT1080 cells, EC50 [3]: 2.36 nM

B3: Antibody 7 IgG1 (antibody, V domains shown)
VH: not shown
VL: NFMLTQPHSVSESPGKTVTISCTRSSGSLANYYVQWYQQRPGSSPTIVIFANNQRPSGVPDRFSGSIDSSSNSASLTISGLKTEDEADYYCQTYDPYSVVFGGGTKLTVL
notes: human IgG1, lambda; constant regions not in the listing; also called Antibody 07
RA synovial fibroblast IL-8, Mean IC50 versus IL-17A (1 nM) and TNFα (0.1 ng/ml) [4]: 4.97 nM | RA synovial fibroblast IL-8, Mean IC50 versus IL-17A (2 nM) [4]: 2.85 nM | Kd [5]: 0.553 nM | cartilage explant synergised IL-6 response, Mean IC50 [6]: 0.61 nM | chondrocyte IL-8 release, geometric mean IC50 at 2 nM IL-17A [7]: 1.6 nM | chondrocyte IL-8 release, geometric mean IC50 at 2 nM IL-17A [8]: 1.3 nM | HT1080 IL-6 release, IgG IC50 [9]: 5 nM | HT1080 IL-6 release, IgG geometric mean IC50 (n = 12) [9]: 4.8 nM | HT1080 IL-6 release, IgG IC50 [10]: 0.7 nM | HT1080 IL-6 release, IgG geometric mean IC50 (n = 15) [10]: 0.8 nM | Kd [11]: 1.34 nM | Kd [12]: 2.1 nM | Kd [13]: 0.512 nM | Kd [14]: 0.171 nM | Kd [15]: 0.195 nM

B4: Antibody 5 IgG1 (antibody, V domains shown)
VH: not shown
VL: NFMLTQPHSVSESPGKTVTISCTRSSGSLANYYVQWYQQRPGSAPTIVIFANNQRPSGVPDRFSGSIDSSSNSASLTISRLKTEDEADYYCQSYNHKDIVFGGGTKLTVL
Fold difference in cross-reactivity (IgG) [9]: 28 fold | HT1080 IL-6 release, IgG IC50 [9]: 39.7 nM | HT1080 IL-6 release, IgG IC50 [10]: 1.4 nM

B5: Antibody 10 IgG1 (antibody, V domains shown)
VH: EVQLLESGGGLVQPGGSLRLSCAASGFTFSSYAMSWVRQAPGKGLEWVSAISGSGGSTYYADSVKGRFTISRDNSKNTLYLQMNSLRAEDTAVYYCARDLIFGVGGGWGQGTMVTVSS
VL: NFMLTQPHSVSESPGKTVTISCTRSSGSLANYYVQWYQQRPGSAPTIVIFANNQRPSGVPDRFSGSIDSSSNSASLTISRLKTEDEADYYCQSYDPHSVVFGGGTKLTVL
Fold difference in cross-reactivity (IgG) [9]: 2 fold | HT1080 IL-6 release, IgG IC50 [9]: 4.9 nM | HT1080 IL-6 release, IgG IC50 [10]: 2.2 nM

B6: Antibody 9 IgG1 (antibody, V domains shown)
VH: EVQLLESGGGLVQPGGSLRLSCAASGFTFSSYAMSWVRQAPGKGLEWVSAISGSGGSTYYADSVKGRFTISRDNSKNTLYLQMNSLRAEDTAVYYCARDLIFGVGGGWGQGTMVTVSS
VL: NFMLTQPHSVSESPGKTVTISCTRSSGSLANYYVQWYQQRPGSAPTIVIFANNQRPSGVPDRFSGSIDSSSNSASLTISRLKTEDEADYYCQSYSPHSVVFGGGTKLTVL
Fold difference in cross-reactivity (IgG) [9]: 4 fold | HT1080 IL-6 release, IgG IC50 [9]: 9.2 nM | HT1080 IL-6 release, IgG IC50 [10]: 2.3 nM

B7: Antibody 4 IgG1 (antibody, V domains shown)
VH: not shown
VL: NFMLTQPHSVSESPGKTVTISCTRSSGSLANYYVQWYQQRPGSAPTIVIFANNQRPSGVPDRFSGSIDSSSNSASLTISRLKTEDEADYYCQSYSPTSVVFGGGTKLTVL
Fold difference in cross-reactivity (IgG) [9]: 8 fold | HT1080 IL-6 release, IgG IC50 [9]: 7.3 nM | HT1080 IL-6 release, IgG IC50 [10]: 0.9 nM

B8: Antibody 3 IgG1 (antibody, V domains shown)
VH: not shown
VL: NFMLTQPHSVSESPGKTVTISCTRSSGSLANYYVQWYQQRPGSAPTIVIFANNQRPSGVPDRFSGSIDSSSNSASLTISRLKTEDEADYYCQSYSPHSVVFGGGTKLTVL
Fold difference in cross-reactivity (IgG) [9]: 16 fold | HT1080 IL-6 release, IgG IC50 [9]: 13 nM | HT1080 IL-6 release, IgG IC50 [10]: 0.8 nM

B9: Antibody 1 scFv (scFv, V domains shown)
VH: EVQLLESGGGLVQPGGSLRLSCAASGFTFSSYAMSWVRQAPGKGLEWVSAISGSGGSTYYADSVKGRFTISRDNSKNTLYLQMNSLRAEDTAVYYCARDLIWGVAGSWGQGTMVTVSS
VL: NFMLTQPHSVSESPGKTVTISCTRSSGSLANYYVQWYQQRPGSAPTIVIFANNQRPSGVPDRFSGSIDSSSNSASLTISRLKTEDEADYYCQSYDDSSVVFGGGTKLTVL
notes: scFv (one chain); also called TINA12
IC50 [16]: 12 nM | IC50 [17]: 12 nM | HT1080 IL-6 release, scFv: % inhibition printed in the IC50 column (no IC50 reached) [10]: 70%

B10: Antibody 12 IgG1 (antibody, V domains shown)
VH: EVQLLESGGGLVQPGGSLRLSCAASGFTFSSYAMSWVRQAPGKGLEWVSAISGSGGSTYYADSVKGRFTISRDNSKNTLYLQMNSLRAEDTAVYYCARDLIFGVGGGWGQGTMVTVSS
VL: NFMLTQPHSVSESPGKTVTISCTRSSGSLANYYVQWYQQRPGSAPTIVIFANNQRPSGVPDRFSGSIDSSSNSASLTISRLKTEDEADYYCQTYDPYSVVFGGGTKLTVL
Fold difference in cross-reactivity (IgG) [9]: 2 fold | HT1080 IL-6 release, IgG IC50 [9]: 4.2 nM | HT1080 IL-6 release, IgG IC50 [10]: 2.1 nM

B11: Antibody 11 scFv (scFv, V domains shown)
VH: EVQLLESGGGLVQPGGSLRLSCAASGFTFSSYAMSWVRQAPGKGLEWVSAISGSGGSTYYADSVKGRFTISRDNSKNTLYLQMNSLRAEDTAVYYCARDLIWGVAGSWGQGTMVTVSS
VL: NFMLTQPHSVSESPGKTVTISCTRSSGSLANYYVQWYQQRPGSAPTIVIFANNQRPSGVPDRFSGSIDSSSNSASLTISRLKTEDEADYYCQSYSPHSVVFGGGTKLTVL
notes: scFv (one chain)
IC50 [16]: 0.6 nM | HT1080 IL-6 release, scFv: % inhibition printed in the IC50 column (no IC50 reached) [9]: 20% | HT1080 IL-6 release, scFv IC50 [10]: 8.2 nM

B12: Antibody 8 scFv (scFv, V domains shown)
VH: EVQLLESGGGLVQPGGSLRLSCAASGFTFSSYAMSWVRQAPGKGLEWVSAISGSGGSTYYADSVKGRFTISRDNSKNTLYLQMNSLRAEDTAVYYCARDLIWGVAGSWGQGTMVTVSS
VL: NFMLTQPHSVSESPGKTVTISCTRSSGSLANYYVQWYQQRPGSAPTIVIFANNQRPSGVPDRFSGSIDSSSNSASLTISRLKTEDEADYYCQSYNHKDIVFGGGTKLTVL
notes: scFv (one chain)
IC50 [16]: 0.7 nM | HT1080 IL-6 release, scFv IC50 [9]: 96.4 nM | HT1080 IL-6 release, scFv IC50 [10]: 34.3 nM

B13: Antibody 6 scFv (non-germlined) (scFv, V domains shown)
VH: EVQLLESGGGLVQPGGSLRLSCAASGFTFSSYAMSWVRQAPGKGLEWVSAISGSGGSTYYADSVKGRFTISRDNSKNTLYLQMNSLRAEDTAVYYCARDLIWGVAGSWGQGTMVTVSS
VL: NFMLTQPHSVSESPGKTVTISCTRSSGSLANYYVQWYQQRPGSAPTIVIFANNQRPSGVPDRFSGSIDSSSNSASLTISRLKTEDEADYYCQSYSPSSVVFGGGTKLTVL
notes: scFv (one chain)
IC50 [16]: 1.7 nM | HT1080 IL-6 release, scFv IC50 [9]: 136 nM | HT1080 IL-6 release, scFv IC50 [10]: 31.2 nM

B14: Antibody 2 scFv (non-germlined) (scFv, V domains shown)
VH: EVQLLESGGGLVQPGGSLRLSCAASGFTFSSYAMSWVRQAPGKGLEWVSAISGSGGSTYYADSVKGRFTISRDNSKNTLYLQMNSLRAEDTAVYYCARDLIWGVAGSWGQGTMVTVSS
VL: NFMLTQPHSVSESPGKTVTISCTRSSGSLANYYVQWYQQRPGSAPTIVIFANNQRPSGVPDRFSGSIDSSSNSASLTISRLKTEDEADYYCQSYDPHSVVFGGGTKLTVL
notes: scFv (one chain)
IC50 [18]: 0.7 nM | HT1080 IL-6 release, scFv IC50 [9]: 99 nM | HT1080 IL-6 release, scFv IC50 [10]: 16.2 nM

B15: Antibody 16 scFv (scFv, V domains shown)
VH: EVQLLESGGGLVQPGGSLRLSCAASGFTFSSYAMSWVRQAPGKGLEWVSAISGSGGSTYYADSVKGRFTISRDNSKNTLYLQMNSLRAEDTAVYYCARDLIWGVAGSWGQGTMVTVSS
VL: NFMLTQPHSVSESPGKTVTISCTRSSGSLANYYVQWYQQRPGSAPTIVIFANNQRPSGVPDRFSGSIDSSSNSASLTISRLKTEDEADYYCQTYDPYSVVFGGGTKLTVL
notes: scFv (one chain)
HT1080 IL-6 release, scFv IC50 [9]: 249 nM | HT1080 IL-6 release, scFv IC50 [10]: 13 nM

B16: Antibody 15 scFv (non-germlined) (scFv, V domains shown)
VH: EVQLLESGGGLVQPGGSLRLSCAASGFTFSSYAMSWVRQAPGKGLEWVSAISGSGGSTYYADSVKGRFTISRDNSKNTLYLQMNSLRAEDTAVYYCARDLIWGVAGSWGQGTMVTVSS
VL: NFMLTQPHSVSESPGKTVTISCTRSSGSLANYYVQWYQQRPGSAPTIVIFANNQRPSGVPDRFSGSIDSSSNSASLTISRLKTEDEADYYCQSYSPTSVVFGGGTKLTVL
notes: scFv (one chain)
IC50 [16]: 1.6 nM | HT1080 IL-6 release, scFv IC50 [9]: 159 nM | HT1080 IL-6 release, scFv IC50 [10]: 21.7 nM

B17: Antibody 14 scFv (non-germlined) (scFv, V domains shown)
VH: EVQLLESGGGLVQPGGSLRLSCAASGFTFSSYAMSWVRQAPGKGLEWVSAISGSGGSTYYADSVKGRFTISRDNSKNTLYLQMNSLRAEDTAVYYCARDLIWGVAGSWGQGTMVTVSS
VL: NFMLTQPHSVSESPGKTVTISCTRSSGSLANYYVQWYQQRPGSAPTIVIFANNQRPSGVPDRFSGSIDSSSNSASLTISRLKTEDEADYYCQSYDPTNQVFGGGTKLTVL
notes: scFv (one chain)
IC50 [16]: 2.5 nM | HT1080 IL-6 release, scFv IC50 [9]: 99.5 nM | HT1080 IL-6 release, scFv IC50 [10]: 36.7 nM

B18: Antibody 13 scFv (non-germlined) (scFv, V domains shown)
VH: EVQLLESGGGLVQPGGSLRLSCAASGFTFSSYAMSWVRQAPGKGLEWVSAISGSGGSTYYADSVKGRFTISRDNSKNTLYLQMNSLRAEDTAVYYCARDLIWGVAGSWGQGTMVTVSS
VL: NFMLTQPHSVSESPGKTVTISCTRSSGSLANYYVQWYQQRPGSAPTIVIFANNQRPSGVPDRFSGSIDSSSNSASLTISRLKTEDEADYYCQSYDPRVVVFGGGTKLTVL
notes: scFv (one chain)
IC50 [16]: 1.6 nM | HT1080 IL-6 release, scFv IC50 [9]: 147 nM | HT1080 IL-6 release, scFv IC50 [10]: 35.9 nM
